In US20090035321A1, “Intercellular adhesion molecules and their binding ligands” (Boehringer Ingelheim Pharmaceuticals, Inc., published 2009):

Experiments:
ICAM-1 Y476/TAG (human) = ICAM-1 Y476/TAG (human) (UniProt P05362); test: COS cell adhesion to purified LFA-1, no antibody
[1] = molecular target: Intercellular Adhesion Molecule-1 (ICAM-1), wild type, on the cell surface (human) (UniProt P05362); test: COS cell adhesion to purified LFA-1, no antibody
[2] = molecular target: ICAM-1 A115N/SV (printed A155N/SV at paragraph 410) (human) (UniProt P05362); test: flow, COS cells
[3] = molecular target: ICAM-1 N269QSQI/IQAEQ (human) (UniProt P05362); test: flow, COS cells
ICAM-1 N240DS/KNA = ICAM-1 N240DS/KNA (human, UniProt P05362); test: flow, COS cells
ICAM-1 E254DE/KEK = ICAM-1 E254DE/KEK (human, UniProt P05362); test: flow, COS cells
ICAM-1 Q1T/KA = ICAM-1 Q1T/KA (human, UniProt P05362); test: flow, COS cells
ICAM-1 Q1/K = ICAM-1 Q1/K (human, UniProt P05362); test: flow, COS cells
ICAM-1 S3VS/AGL = ICAM-1 S3VS/AGL (human, UniProt P05362); test: flow, COS cells
ICAM-1 S3/T = ICAM-1 S3/T (human, UniProt P05362); test: flow, COS cells
ICAM-1 K8/E = ICAM-1 K8/E (human, UniProt P05362); test: flow, COS cells
ICAM-1 R13G/EA = ICAM-1 R13G/EA (human, UniProt P05362); test: flow, COS cells
ICAM-1 R13/K = ICAM-1 R13/K (human, UniProt P05362); test: flow, COS cells
ICAM-1 G15/SA = ICAM-1 G15/SA (human, UniProt P05362); test: flow, COS cells
ICAM-1 S24/A = ICAM-1 S24/A (human, UniProt P05362); test: flow, COS cells
ICAM-1 D26QPK/ALPE = ICAM-1 D26QPK/ALPE (human, UniProt P05362); test: flow, COS cells
ICAM-1 Q27/L = ICAM-1 Q27/L (human, UniProt P05362); test: flow, COS cells
ICAM-1 K39KE/ERQ = ICAM-1 K39KE/ERQ (human, UniProt P05362); test: flow, COS cells
ICAM-1 N48/H = ICAM-1 N48/H (human, UniProt P05362); test: flow, COS cells
ICAM-1 Y52/F = ICAM-1 Y52/F (human, UniProt P05362); test: flow, COS cells
ICAM-1 Y52/FA = ICAM-1 Y52/FA (human, UniProt P05362); test: flow, COS cells
ICAM-1 N56V/HM = ICAM-1 N56V/HM (human, UniProt P05362); test: flow, COS cells
ICAM-1 Q58EDS/AKDI = ICAM-1 Q58EDS/AKDI (human, UniProt P05362); test: flow, COS cells
ICAM-1 E59/Q = ICAM-1 E59/Q (human, UniProt P05362); test: flow, COS cells
ICAM-1 D60S/KL = ICAM-1 D60S/KL (human, UniProt P05362); test: flow, COS cells
ICAM-1 D60/N = ICAM-1 D60/N (human, UniProt P05362); test: flow, COS cells
ICAM-1 D60/Q = ICAM-1 D60/Q (human, UniProt P05362); test: flow, COS cells
ICAM-1 Q62PM/API = ICAM-1 Q62PM/API (human, UniProt P05362); test: flow, COS cells
ICAM-1 M64/I = ICAM-1 M64/I (human, UniProt P05362); test: flow, COS cells
ICAM-1 N68/K = ICAM-1 N68/K (human, UniProt P05362); test: flow, COS cells
ICAM-1 D71GQS/NGEL = ICAM-1 D71GQS/NGEL (human, UniProt P05362); test: flow, COS cells
ICAM-1 D71/N = ICAM-1 D71/N (human, UniProt P05362); test: flow, COS cells
ICAM-1 Q73/H = ICAM-1 Q73/H (human, UniProt P05362); test: flow, COS cells
ICAM-1 S74/A = ICAM-1 S74/A (human, UniProt P05362); test: flow, COS cells
ICAM-1 K77T/ES = ICAM-1 K77T/ES (human, UniProt P05362); test: flow, COS cells
ICAM-1 Y83/S = ICAM-1 Y83/S (human, UniProt P05362); test: flow, COS cells
ICAM-1 R88V/EA = ICAM-1 R88V/EA (human, UniProt P05362); test: flow, COS cells
ICAM-1 E90/Q = ICAM-1 E90/Q (human, UniProt P05362); test: flow, COS cells
ICAM-1 L91/A = ICAM-1 L91/A (human, UniProt P05362); test: flow, COS cells
ICAM-1 G101K/AN = ICAM-1 G101K/AN (human, UniProt P05362); test: flow, COS cells
ICAM-1 N103/K = ICAM-1 N103/K (human, UniProt P05362); test: flow, COS cells
ICAM-1 E111GGA/KAGS = ICAM-1 E111GGA/KAGS (human, UniProt P05362); test: flow, COS cells
ICAM-1 N118/Q = ICAM-1 N118/Q (human, UniProt P05362); test: flow, COS cells
ICAM-1 R125/E = ICAM-1 R125/E (human, UniProt P05362); test: flow, COS cells
ICAM-1 E127/R = ICAM-1 E127/R (human, UniProt P05362); test: flow, COS cells
ICAM-1 H152HGA/EEGS = ICAM-1 H152HGA/EEGS (human, UniProt P05362); test: flow, COS cells
ICAM-1 N156/E = ICAM-1 N156/E (human, UniProt P05362); test: flow, COS cells
ICAM-1 R166PQ/EPA = ICAM-1 R166PQ/EPA (human, UniProt P05362); test: flow, COS cells
ICAM-1 N175/A = ICAM-1 N175/A (human, UniProt P05362); test: flow, COS cells
ICAM-1 A178/G = ICAM-1 A178/G (human, UniProt P05362); test: flow, COS cells

Q: Which % of Cells Expressing ICAM-1 that Bind LFA-1 (ICAM-1 Y476/TAG (human)) does the source give for “purified LFA-1, bound to plastic (from UniProt P20701) (receptor)” here?
A: The % of Cells Expressing ICAM-1 that Bind LFA-1 was 20%.

Q: And the % of Cells Expressing ICAM-1 that Bind LFA-1 [1]?
A: Its % of Cells Expressing ICAM-1 that Bind LFA-1 is 20%.

Q: With monoclonal antibody CL203 as the substance, how does the SLFI % WT [2] read?
A: The SLFI % WT was 60 % WT.

Q: What about the SLFI % WT [3] of the same substance?
A: Its SLFI % WT is 95 % WT.

Q: And the SLFI % WT (ICAM-1 N240DS/KNA)?
A: The SLFI % WT was 142 % WT.

Q: What about the SLFI % WT (ICAM-1 E254DE/KEK) of the same substance?
A: Its SLFI % WT is 180 % WT.

Q: What about the SLFI % WT (ICAM-1 Q1T/KA) of the same substance?
A: Its SLFI % WT is 230 % WT.

Q: And the SLFI % WT (ICAM-1 Q1/K)?
A: Its SLFI % WT is 168 % WT.

Q: And the SLFI % WT (ICAM-1 S3VS/AGL)?
A: The SLFI % WT was 121 % WT.

Q: What about the SLFI % WT (ICAM-1 S3/T) of the same substance?
A: The SLFI % WT was 224 % WT.

Q: And the SLFI % WT (ICAM-1 K8/E)?
A: Its SLFI % WT is 111 % WT.

Q: And the SLFI % WT (ICAM-1 R13G/EA)?
A: Its SLFI % WT is 132 % WT.

Q: What about the SLFI % WT (ICAM-1 R13/K) of the same substance?
A: The SLFI % WT was 189 % WT.

Q: What about the SLFI % WT (ICAM-1 G15/SA) of the same substance?
A: Its SLFI % WT is 172 % WT.

Q: And the SLFI % WT (ICAM-1 S24/A)?
A: The SLFI % WT was 158 % WT.

Q: What about the SLFI % WT (ICAM-1 D26QPK/ALPE) of the same substance?
A: The SLFI % WT was 126 % WT.

Q: And the SLFI % WT (ICAM-1 Q27/L)?
A: Its SLFI % WT is 33 % WT.

Q: What about the SLFI % WT (ICAM-1 K39KE/ERQ) of the same substance?
A: Its SLFI % WT is 84 % WT.

Q: And the SLFI % WT (ICAM-1 N48/H)?
A: Its SLFI % WT is 164 % WT.

Q: And the SLFI % WT (ICAM-1 Y52/F)?
A: Its SLFI % WT is 152 % WT.

Q: What about the SLFI % WT (ICAM-1 Y52/FA) of the same substance?
A: The SLFI % WT was 100 % WT.

Q: And the SLFI % WT (ICAM-1 N56V/HM)?
A: Its SLFI % WT is 121 % WT.

Q: And the SLFI % WT (ICAM-1 Q58EDS/AKDI)?
A: Its SLFI % WT is 98 % WT.

Q: And the SLFI % WT (ICAM-1 E59/Q)?
A: Its SLFI % WT is 195 % WT.

Q: What about the SLFI % WT (ICAM-1 D60S/KL) of the same substance?
A: Its SLFI % WT is 105 % WT.

Q: And the SLFI % WT (ICAM-1 D60/N)?
A: The SLFI % WT was 127 % WT.

Q: What about the SLFI % WT (ICAM-1 D60/Q) of the same substance?
A: The SLFI % WT was 80 % WT.

Q: What about the SLFI % WT (ICAM-1 Q62PM/API) of the same substance?
A: The SLFI % WT was 200 % WT.

Q: What about the SLFI % WT (ICAM-1 M64/I) of the same substance?
A: The SLFI % WT was 183 % WT.

Q: And the SLFI % WT (ICAM-1 N68/K)?
A: The SLFI % WT was 153 % WT.

Q: And the SLFI % WT (ICAM-1 D71GQS/NGEL)?
A: Its SLFI % WT is 161 % WT.

Q: What about the SLFI % WT (ICAM-1 D71/N) of the same substance?
A: The SLFI % WT was 109 % WT.

Q: What about the SLFI % WT (ICAM-1 Q73/H) of the same substance?
A: Its SLFI % WT is 139 % WT.

Q: And the SLFI % WT (ICAM-1 S74/A)?
A: The SLFI % WT was 129 % WT.

Q: What about the SLFI % WT (ICAM-1 K77T/ES) of the same substance?
A: Its SLFI % WT is 151 % WT.

Q: What about the SLFI % WT (ICAM-1 Y83/S) of the same substance?
A: Its SLFI % WT is 125 % WT.

Q: What about the SLFI % WT (ICAM-1 R88V/EA) of the same substance?
A: The SLFI % WT was 113 % WT.

Q: And the SLFI % WT (ICAM-1 E90/Q)?
A: Its SLFI % WT is 152 % WT.

Q: What about the SLFI % WT (ICAM-1 L91/A) of the same substance?
A: The SLFI % WT was 15 % WT.

Q: And the SLFI % WT (ICAM-1 G101K/AN)?
A: Its SLFI % WT is 142 % WT.

Q: And the SLFI % WT (ICAM-1 N103/K)?
A: Its SLFI % WT is 91 % WT.

Q: What about the SLFI % WT (ICAM-1 E111GGA/KAGS) of the same substance?
A: The SLFI % WT was 122 % WT.

Q: And the SLFI % WT (ICAM-1 N118/Q)?
A: Its SLFI % WT is 139 % WT.

Q: What about the SLFI % WT (ICAM-1 R125/E) of the same substance?
A: Its SLFI % WT is 145 % WT.

Q: What about the SLFI % WT (ICAM-1 E127/R) of the same substance?
A: Its SLFI % WT is 191 % WT.

Q: What about the SLFI % WT (ICAM-1 H152HGA/EEGS) of the same substance?
A: The SLFI % WT was 94 % WT.

Q: And the SLFI % WT (ICAM-1 N156/E)?
A: The SLFI % WT was 182 % WT.

Q: What about the SLFI % WT (ICAM-1 R166PQ/EPA) of the same substance?
A: The SLFI % WT was 94 % WT.

Q: What about the SLFI % WT (ICAM-1 N175/A) of the same substance?
A: Its SLFI % WT is 80 % WT.

Q: What about the SLFI % WT (ICAM-1 A178/G) of the same substance?
A: The SLFI % WT was 304 % WT.
